# In patent US20200325475, “DNA APTAMER […] BINDING TO CFP10, AND USE […]” (MD APTUS INC., published 2020):
# B1: CG6 (ssDNA)
# DNA: CACCTAATACGACTCACTATAGCGGATCCGACCTAGGTTCAGAAGGCTTTCTATTTTCCCGGTGCCTCGCACTGGCTCGAACAAGCTTGC
# Tests used:
# [1] = molecular target: CFP10 (culture filtrate protein 10 kDa) (Mycobacterium tuberculosis H37Rv, UniProt P9WNK5 P9WNK5:1-100); test: Cy3-aptamer binding to CFP10 on magnetic beads, fluorescence; 20 mM Tris, 50 mM NaCl, 5 mM KCl, 5 mM MgCl2, pH 8.0; conditions: tags: His6 tag, expressed from pET32a in E. coli BL21(DE3); label: Cy3 (fluorescence Kd assay)
# Description: 400 pmole of CFP10 was mixed with 10 μL of magnetic beads, and then incubated in 100 μL of a binding buffer (20 mM Tris, 50 mM NaCl, 5 mM KCl, 5 mM MgCl₂, pH 8.0) for 1 hour. To separate unbound CFP10, washing was performed twice with a binding buffer. Subsequently, the resulting mixture was incubated together with various concentrations of a Cy3-labeled aptamer, and an unbound aptamer was removed by washing. The amount of Cy3-labeled ssDNA aptamer bound to the magnetic beads with CFP10 immobilized thereon was measured by fluorescence measurement (1420 Victor Multilabel counter, PerkinElmer, USA) by separating only Cy3-labeled ssDNA bound to CFP10. As a result, as shown in FIG. 3 and Table 2 below, the Kd value of the DNA aptamer having a CG6 base sequence was measured.
# [2] = molecular target: ESAT6 (UniProt P9WNK7 P9WNK7:1-95); test: impedance biosensor, 10 pM protein in PBS
# Source text: At this time, each protein was mixed at a concentration of 10 pM with PBS and used for detection.
# Chain of CFP10 (culture filtrate protein 10 kDa) (P9WNK5 whole entry, one chain of several): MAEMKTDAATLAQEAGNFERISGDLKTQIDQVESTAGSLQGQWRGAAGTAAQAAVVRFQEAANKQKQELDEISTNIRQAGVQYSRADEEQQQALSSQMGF
# Chain of ESAT6 (P9WNK7 whole entry, one chain of several): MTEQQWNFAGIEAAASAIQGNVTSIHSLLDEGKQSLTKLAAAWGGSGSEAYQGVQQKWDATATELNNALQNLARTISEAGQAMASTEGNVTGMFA
binder,measurement,setting,value
B1,Kd,[1],92.8 nM
same,binding result,[2],no binding
